Target: Scribble PDZ1 (His-tagged, aa 719-829) (human, UniProt Q14160 719-829)
Assay: ITC

Scribble PDZ1 (His-tagged, aa 719-829), sequence (Q14160 719-829): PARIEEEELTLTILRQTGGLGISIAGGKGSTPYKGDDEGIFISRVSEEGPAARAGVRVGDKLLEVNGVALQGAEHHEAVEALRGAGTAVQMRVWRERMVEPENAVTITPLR

Kd: 1600 nM
Binder: ARVSKETPL [ARVSKETPL (MAPK12 peptide, unphosphorylated)]

Source: article PMC6100724 (2018)
